Laboratory results from article PMC10481361, “Structural insight into G-protein chaperone-mediated maturation of a bacterial adenosylcobalamin-dependent mutase” (The Journal of Biological Chemistry, 2023).
Numbering of substitutions follows the chain as printed. Names may count otherwise.

B1: Cupriavidus metallidurans isobutyryl-CoA mutase fused (IcmF), wild type (enzyme, UniProt Q1LRY0 1-1093, looked up)
chain: MTDLSDVSRTAAAKPPAVPGRGPANKVRFVTAASLFDGHDASINIMRRILQSQGCEVIHLGHNRSVQEVVTAALQEDVQGIAISSYQGGHVEYFKYMIDLLREHGGEHIQVFGGGGGVIVPDEIRELQAYGVARIYSPEDGQRMGLAGMITDMAQRCDIDLTRYAPTTLDTVVAGDRRALAQLITALENGKADPELVSALHAQAKAAAVPVLGITGTGGAGKSSLTDELIRRFRLDQDDALSIAVISIDPSRRKSGGALLGDRIRMNAINHPNIFMRSLATREAGSEISQALPDVIAACKAARFDLVIVETSGIGQGDAAIVPHVDLSLYVMTPEFGAASQLEKIDMLDFADFVAINKFDRKGAQDAWRDVAKQVQRNREQWHSRAEDMPVYGTQASRFNDDGVTMLYQGLVGALGARGMSLKPGTLPNLEGRISTGQNVIVPPARSRYLAELADTVRAYHRRVVAQSKLARERQQLRAAHDMLQGAGHESAALETLASERDVSLGAVERKLLAMWPQMQQAYSGDEYVVKIRDKEIRTGLISTTLSGTKIRKVVLPRFEDEGEILKWLMRENVPGSFPYTAGVFAFKREGEDPTRMFAGEGDAFRTNRRFKLVSEGMEAKRLSTAFDSVTLYGEDPHERPDIYGKVGNSGVSIATLEDMKVLYDGFDLTNPSTSVSMTINGPAPTILAMFMNTAIDQQIDRFRADNGRDPTADEEAKIRAWVLQNVRGTVQADILKEDQGQNTCIFSTEFSLKVMGDIQEYFVHHQVRNFYSVSISGYHIAEAGANPISQLAFTLANGFTYVEAYLARGMHIDDFAPNLSFFFSNGMDPEYSVLGRVARRIWAVTMRDKYGANDRSQKLKYHIQTSGRSLHAQEIDFNDIRTTLQALIAIYDNCNSLHTNAYDEAITTPTAESVRRALAIQLIINREWGVAKCENPNQGSFLIEELTDLVEEAVLQEFERIAERGGVLGAMETGYQRGKIQEESLYYEQLKHDGTLPIIGVNTFRNPNGDPTPQTLELARSSEDEKQSQLHRLTEFHGAHQADAEAMLARLRQAVIDNRNVFAVLMDAVRVCSLGQITHALFEVGGQYRRNM
notes: Isobutyryl-CoA mutase fused (IcmF) of Cupriavidus metallidurans; Resting state is a homodimer; dimers join through their G-protein domains into higher-order oligomers; The plasmid has a thrombin cleavage site after the His-tag; no cleavage is described; also called wt IcmF; cmIcmF; source: E. coli BL21 T7 Express, purified (Ni-NTA, MonoQ, SEC)
B2: Cupriavidus metallidurans isobutyryl-CoA mutase fused (IcmF), Q341A switch III variant (enzyme, UniProt Q1LRY0 1-1093, looked up)
chain: B1 chain with Q341A
notes: Isobutyryl-CoA mutase fused (IcmF) of Cupriavidus metallidurans with Q341A in the switch III region of the G-protein domain; also called Q341A IcmF; source: E. coli BL21 T7 Express, purified (Ni-NTA, MonoQ, SEC)

How the values were obtained:
[1] = target: T1, IcmF (isobutyryl-CoA mutase fused) (Cupriavidus metallidurans, UniProt Q1LRY0); assay: negative stain EM of oligomers; format: binding; conditions: 500 μM GMPPNP; pH 8; with hydroxocobalamin or photolysed AdoCbl; weaker oligomerization agonist than GMPPCP
T1 construct: resting homodimer; oligomerizes with GTP/GMPPCP; modelled residues 22-1093
T1 sequence (Q1LRY0 1-1093): B1 chain

[2] = target: T2, IcmF (isobutyryl-CoA mutase fused) (Cupriavidus metallidurans, UniProt Q1LRY0, Q341A); assay: cryo-EM, […] Å; format: binding; conditions: sample prepared with 500 μM GTP, 2 μM enzyme; GDP modelled at each nucleotide site of the G-protein domain; Mg2+ in chain A
T2 construct: resting homodimer; oligomerizes with GTP/GMPPCP; modelled residues 22-1093
T2 sequence (Q1LRY0 whole entry Q341A, the tested form may be a part): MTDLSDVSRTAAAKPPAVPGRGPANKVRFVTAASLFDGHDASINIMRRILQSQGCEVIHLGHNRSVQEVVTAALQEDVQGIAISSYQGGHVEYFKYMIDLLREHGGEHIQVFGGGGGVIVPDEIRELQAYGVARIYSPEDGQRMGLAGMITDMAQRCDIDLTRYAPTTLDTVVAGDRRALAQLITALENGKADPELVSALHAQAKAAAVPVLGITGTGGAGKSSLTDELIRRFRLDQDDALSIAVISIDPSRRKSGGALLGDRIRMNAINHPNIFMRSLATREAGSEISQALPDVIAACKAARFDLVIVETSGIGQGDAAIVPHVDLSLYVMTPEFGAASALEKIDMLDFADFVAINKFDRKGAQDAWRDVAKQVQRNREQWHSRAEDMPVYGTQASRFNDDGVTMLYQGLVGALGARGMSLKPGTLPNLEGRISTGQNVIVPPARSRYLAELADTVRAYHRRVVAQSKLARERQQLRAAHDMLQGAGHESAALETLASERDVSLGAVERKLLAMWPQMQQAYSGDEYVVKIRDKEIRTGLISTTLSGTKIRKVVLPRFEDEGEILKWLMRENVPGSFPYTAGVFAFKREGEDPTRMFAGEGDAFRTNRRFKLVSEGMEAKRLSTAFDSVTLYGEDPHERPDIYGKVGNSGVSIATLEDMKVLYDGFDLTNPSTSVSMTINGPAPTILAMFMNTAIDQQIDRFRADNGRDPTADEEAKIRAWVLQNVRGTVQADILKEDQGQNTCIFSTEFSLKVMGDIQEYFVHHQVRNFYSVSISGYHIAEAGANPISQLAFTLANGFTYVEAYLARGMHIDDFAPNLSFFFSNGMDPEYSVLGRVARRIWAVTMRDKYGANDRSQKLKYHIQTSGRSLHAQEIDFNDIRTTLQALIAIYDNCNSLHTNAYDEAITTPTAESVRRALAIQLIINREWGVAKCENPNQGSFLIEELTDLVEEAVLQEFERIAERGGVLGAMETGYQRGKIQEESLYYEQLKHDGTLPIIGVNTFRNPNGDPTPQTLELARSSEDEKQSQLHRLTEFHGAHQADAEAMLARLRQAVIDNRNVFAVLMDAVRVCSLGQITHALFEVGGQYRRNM

purified protein = substrate: Nc1nc2c(ncn2[C@@H]2O[C@H](COP(=O)(O)OP(=O)(O)OP(=O)(O)O)[C@@H](O)[C@H]2O)c(=O)[nH]1; assay: purified protein; format: biochemical, Cupriavidus metallidurans; conditions: GTPase, 0.5 μM enzyme, 23 °C, GTP 2–1500 μM
[3] = target: the molecule itself; assay: negative stain EM; 20 ng/μl wt IcmF in 20 mM Hepes pH 8, 50 mM NaCl, no nucleotide or 500 μM GDP (30 min on ice); dimer seen, dimer with dimer not seen
[4] = target: the molecule itself; assay: cryo-EM structure; 2 μM Q341A IcmF, 500 μM GTP in SEC buffer; 4.6 Å reconstruction, three protomers modelled

| Molecule | negative stain EM of oligomers [1] | cryo-EM, 4.6 Å [2] | Km (purified protein) [µM] | Vmax (purified protein) [µM/min] | kcat (purified protein) [s⁻¹] | kcat/Km (purified protein) [M⁻¹ s⁻¹] | stoichiometry N [3] | binding result [4] |
| --- | --- | --- | --- | --- | --- | --- | --- | --- |
| Nc1nc2c(ncn2[C@@H]2O[C@H](COP(=O)(O)OP(=O)(O)NP(=O)(O)O)[C@@H](O)[C@H]2O)c(=O)[nH]1 [GMPPNP] | Photolysis of AdoCbl leads to more supramolecular complex formation but not as many as in the GMPPNP + OHCbl | – | – | – | – | – | – | – |
| Nc1nc2c(ncn2[C@@H]2O[C@H](COP(=O)(O)OP(=O)(O)O)[C@@H](O)[C@H]2O)c(=O)[nH]1 [GDP] | – | there was clear density for GDP at each nucleotide-binding site | – | – | – | – | – | – |
| B1 | – | – | 2.4 ± 0.9 | 1.57 | 0.0522 ± 0.003 | 21700 | 2 | – |
| B2 | – | – | 2.2 ± 0.8 | 0.533 | 0.0178 ± 0.00117 | 8170 | – | binds |
